Consider four molecules from patent US20250136687A1 (SHANDONG SIMCERE BIOPHARMACEUTICAL, published 2025).

Read-outs that look alike come from different tables or passages of the source.

Test [1] addresses T1, human CD3ε/δ-His (human, UniProt P07766 23-126; P04234 22-105).
T1 construct: Bought recombinant heterodimer with His tag; also called human CD3ε/δ protein
The test can be described thus: ELISA, coated antigen. The protocol: (§1) To detect the binding activity of the humanized antibodies to CD3 protein, CD3 protein was diluted with PBS to the final concentration of […], then added to a 96-well ELISA plate at 50 μL/well, and the plate was sealed with a plastic film, and incubated overnight at 4° C. On the next day, the plate was washed 2 times with PBS, and a blocking solution [PBS+2% (v/v) BSA] was added for blocking at room temperature for 2 h. The blocking solution was poured off, and the antibody (initial concentration of 100 nM, and gradient dilution at 1:10) or a negative control antibody was added at 50 µl/well. After incubation at 37° C. for 2 h, the plate was washed 3 times with PBS. […] TMB substrate was added at 50 μl/well, and incubated at room temperature for 10 min, and then a stop solution (1.0 N HCl) was added at 50 μl/well. The OD450 nm values were read by an ELISA microplate reader (Multimode Plate Reader, EnSight, purchased from Perkin Elmer).
(In general: In an ELISA, binding on a coated surface is turned into a signal by an enzyme label.)

Test [2] has as its target T2, recombinant human CD3ε-ECD His protein (human, UniProt P07766 23-126).
T2 construct: extracellular domain; also called human CD3ε-His; CD3ε antigen protein; not shown: His tag
As to the kind of experiment: ELISA, coated antigen. How it is done: as §1

Test [3] has as its target T1, human CD3ε/δ-His. The test can be described thus: ELISA, coated antigen. How it is done: as §1
The source holds these as a separate data set.

For test [4], the target named is T2, recombinant human CD3ε-ECD His protein. As to the kind of experiment: ELISA, coated antigen. The protocol: as §1
This is another data set of the same source.

The target in test [5] is T1, human CD3ε/δ-His. The test can be described thus: ELISA, coated antigen. How it is done:
as §1
This is another data set of the same source.

Test [6] has as its target T2, recombinant human CD3ε-ECD His protein. The test can be described thus: ELISA, coated antigen. The protocol: as §1
This is another data set of the same source.

Test [7] addresses T3, human CD3 on the cell surface (Jurkat cells, expanded human T cells, Jurkat-Lucia NFAT cells, human PBMC) (human, UniProt P07766 23-207; P04234 22-171; P09693 23-182).
T3 construct: whole, on cells; Endogenous CD3 within the TCR-CD3 complex on cells (also zeta chains and TCR); the cell type is named under assay
As to the kind of experiment: FACS, expanded human T cells.

Test [8] deals with T3, human CD3 on the cell surface (Jurkat …). The test can be described thus: FACS, Jurkat cells. How it is done:
(§2) The binding of the chimeric antibodies to CD3 on the cell surface was analyzed by detecting the binding of the antibodies to Jurkat cells and human T cells. Suspension cells Jurkat cells were scale-up cultured in T-75 cell culture flasks to the logarithmic growth phase, the supernatant of the medium was discarded by centrifugation, and the cell pellet was washed 2 times with PBS for later use. The expanded human T cells were washed 2 times with PBS for later use. After counting the cells in the previous step, the cell pellet was resuspended with [PBS+2% (w/w) BSA] blocking solution to 4×10⁶ cells/ml, and added to a 96-well FACS reaction plate at 50 μl/well, and then the chimeric antibody to be tested was added at 50 μl/well, and incubated at 4° C. for 1 h. The cells were centrifuged and washed 3 times with a PBS buffer. […] The cells were centrifuged and washed 5 times with PBS, and FACS (FACS Canto™, purchased from BD Company) was used for detection and result analysis. Data analysis was performed by software (CellQuest) to obtain the mean fluorescence […] (MFI) of the cells. And then software (GraphPad Prism8) was used for analysis, data fitting, and EC50 value calculation. The same method was used to simultaneously detect the binding of the chimeric antibodies to endogenous CD3 negative cells MOLT4 cells.
On the technique in general: Flow cytometry measures light scatter and fluorescence of single cells or particles in a stream.

The target is the same in test [9]. The test can be described thus: cell-based or functional assay.
Test [10] shares this target. As to the kind of experiment: FACS, expanded human T cells. The protocol:
as §2
The source holds these as a separate data set.

Test [11] has as its target T2, recombinant human CD3ε-ECD His protein. The test can be described thus: SPR (Biacore), antibody captured on Protein A chip. The protocol: Sample buffer and running buffer were HBS-EP+(10 mM HEPES, 150 mM NaCl, 3 mM EDTA, 0.05% surfactant P20) (GE Healthcare; BR-1006-69). The flow-through cell was set to 25° C. The sample block was set to 16° C. Both were pretreated with the running buffer. In each cycle, the antibody to be detected was first captured with a Protein A chip, and then a single concentration of CD3ε antigen protein (purchased from Sino Biological, Inc. (China), catalog number: 10977-H08H) was injected. The binding and dissociation processes of the antibody and the antigen protein were recorded, and finally a glycine solution (pH 1.5, GE Healthcare; BR-1003-54) was used to complete chip regeneration. The binding was measured by injecting different concentrations of recombinant human CD3ε-ECD His proteins in a solution for 240 s with a flow rate of 30 μL/min. The concentration started from 200 nM (see the detailed results for the actual concentration in the test) and was diluted at 1:1, making a total of 5 concentrations. The dissociation phase was monitored for up to 600 s and was triggered by switching from sample solution to running buffer. The surface was regenerated by washing with a 10 mM glycine solution (pH 1.5) for 30 s at a flow rate of 30 μL/min. Bulk refractive index difference was corrected by subtracting the response obtained from the goat anti-human Fc surface. Blank injection was also subtracted (=double reference). For calculation of apparent KD and other kinetic parameters, Langmuir 1:1 model was used.
Background: SPR reads the build-up and loss of mass on a sensor chip optically.

Test [12] addresses T4, cynomolgus monkey CD3 on the surface of expanded monkey T cells (cynomolgus monkey, UniProt Q95LI5 22-198; Q95LI8 22-171; Q95LI7 23-181).
T4 construct: whole, on cells; Endogenous CD3 within the TCR-CD3 complex on T cells expanded from cynomolgus monkey PBMC
The test can be described thus: FACS, expanded monkey T cells. The protocol:
as §2, with “MOLT4 cells. […]” for “MOLT4 cells.”

Test [13] has as its target T3, human CD3 on the cell surface (Jurkat …). The test can be described thus: FACS, expanded human T cells. The protocol:
as §2
This is another data set of the same source.

The target of test [14] is T4, cynomolgus monkey CD3 on the surface of …. As to the kind of experiment: FACS, expanded monkey T cells, 4 nM antibody. The protocol:
as §2
FACS detection and data analysis were performed on the cryopreserved monkey T cells of Example 2.4 according to the method in Example 5.1.

Test [15] addresses T3, human CD3 on the cell surface (Jurkat …). The test can be described thus: cell-based or functional assay. This is another data set of the same source.
In test [16] the target is T4, cynomolgus monkey CD3 on the surface of …. As to the kind of experiment: FACS, expanded monkey T cells. This is another data set of the same source.
The target of another test is T5, monkey CD3ε protein (monkey, UniProt Q95LI5 22-117, limits assumed).
T5 sequence (looked up): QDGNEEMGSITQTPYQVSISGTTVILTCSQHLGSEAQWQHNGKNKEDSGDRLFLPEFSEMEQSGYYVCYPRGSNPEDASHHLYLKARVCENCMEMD
As to the kind of experiment: ELISA, coated antigen.

The target in the next test is T6, monkey CD3ε/δ-His (monkey, UniProt Q95LI5 22-117; Q95LI8 22-105).
T6 construct: Bought recombinant heterodimer with His tag
The test can be described thus: ELISA, coated antigen.

Test [17] has as its target T1, human CD3ε/δ-His. The test can be described thus: SPR, antibody captured on Protein A chip.
Test [18] has as its target T2, recombinant human CD3ε-ECD His protein. The test can be described thus: SPR, antibody captured on Protein A chip.

T2 sequence (P07766 23-126): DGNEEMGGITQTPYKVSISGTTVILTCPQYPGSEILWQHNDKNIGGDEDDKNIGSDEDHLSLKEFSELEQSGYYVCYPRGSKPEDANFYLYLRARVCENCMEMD
T1 sequence (P07766 23-126, stated change not applied, form in doubt, chain 1 of 2): as the sequence (P07766 23-126) above
T1 sequence (P04234 22-105, stated change not applied, form in doubt, chain 2 of 2): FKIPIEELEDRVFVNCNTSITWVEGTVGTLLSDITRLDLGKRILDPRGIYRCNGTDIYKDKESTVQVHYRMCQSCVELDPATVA
T3 sequence (P07766 23-207, chain 1 of 3): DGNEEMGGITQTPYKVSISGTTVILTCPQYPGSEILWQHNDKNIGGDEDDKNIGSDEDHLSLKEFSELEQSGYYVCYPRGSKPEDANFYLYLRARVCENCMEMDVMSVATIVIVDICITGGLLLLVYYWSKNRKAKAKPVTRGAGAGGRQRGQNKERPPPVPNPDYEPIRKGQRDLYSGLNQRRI
T3 sequence (P04234 22-171, chain 2 of 3): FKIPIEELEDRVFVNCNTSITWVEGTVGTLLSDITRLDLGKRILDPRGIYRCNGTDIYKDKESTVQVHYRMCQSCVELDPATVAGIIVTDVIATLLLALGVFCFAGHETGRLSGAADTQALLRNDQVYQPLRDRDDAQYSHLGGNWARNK
T3 sequence (P09693 23-182, chain 3 of 3): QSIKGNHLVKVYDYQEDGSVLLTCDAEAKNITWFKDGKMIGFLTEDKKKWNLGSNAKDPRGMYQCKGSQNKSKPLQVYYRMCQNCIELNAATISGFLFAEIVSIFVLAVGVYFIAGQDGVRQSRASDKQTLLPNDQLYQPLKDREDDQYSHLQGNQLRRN
T6 sequence (Q95LI8 22-105, stated change not applied, form in doubt, chain 2 of 2, one chain of several): as the sequence (P04234 22-105, stated change not applied, form in doubt, chain 2 of 2) above, with I5V, N15K, I20V, S32T, D33N, I34N, T64A, S74N, V83L counted along it

B1: 7221G20-hIgG1 (antibody, V domains shown)
VH: EVQLVESGGGLVQPGRSLRLSCAASGFTFDDYSMHWVRQAPGKGLEWVSGISWNSGSIGYADSVKGRFTISRDNAKNSLYLQMNSLRAEDTALYYCAKYGSGYGKFYYYGMDVWGQGTTVTVSS
VL: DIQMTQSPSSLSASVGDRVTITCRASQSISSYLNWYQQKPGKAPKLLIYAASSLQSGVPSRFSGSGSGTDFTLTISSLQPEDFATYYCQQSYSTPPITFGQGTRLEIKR
One may read the EC50 as the concentration needed to bring the measured effect to its halfway point. For the molecule B1, the EC50 with human CD3ε/δ-His [1] turned out to be 23.4 nM; in the test with human CD3ε/δ-His [3], 23.4 nM; in the test with human CD3ε/δ-His [5], 23.4 nM; in test [7] it was 4.72 nM. The max-OD450 worked out at 1.31 OD450 with human CD3ε/δ-His [1]; 0.05 OD450 in [2]; 1.31 OD450 in the test with human CD3ε/δ-His [3]; 0.06 OD450 in test [4]; 1.31 OD450 with human CD3ε/δ-His [5]; 0.15 OD450 in [6]. For the same molecule, the binding result in [6] was “no binding (tested: 100 nM (initial concentration))”. In test [7], this molecule came in with a max_MFI of 20900 MFI.

B2: 7-35.6 human-murine chimeric antibody (antibody, human IgG1, lambda, V domains shown)
VH: EVQLVESGGGLVQPKGSLKLSCAASGFTFNTYAMNWVRQAPGKGLEWVGRIRSKINNYATYYGDSVKDRFTISRDDSQSMFYLQMNNLKTEDTAMYYCVIHENYGSISWFAYWGQGTLVTVSA
VL: QAVVTQESTLTTSPGETVTLTCRSSTGAVTTSNYANWVQEKPDHLFTGLIGGTNNRAPGVPARFSGSLIGDKAALTITGAQTEDEAIYFCALWYSNHWVFGGGTKLTVLG
notes: Human IgG1 chimera
Broadly, the Kd is the equilibrium constant for the complex coming apart. By koff is commonly meant the rate constant with which the complex falls apart. What is called kon is a measure of how fast the partners come together. In test [8], B2 registered an EC50 of 3.37 nM and an MFI_Max of 2800 MFI. Also, in test [9], the “EC50 (nM), luciferase reporter, Jurkat-Lucia NFAT cells” value is 11.8 nM and the “Maximum response value (RLU)” value amounted to 8570 RLU. In test [10], this molecule had an EC50 of 4.62 nM and an MFI_Max of 3800 MFI. In test [11], the Kd came out at 0.959 nM, the koff was 0.000261 s⁻¹ and the kon was found to be 272000 M⁻¹ s⁻¹. In addition, the EC50 in test [12] is 2.74 nM.

B3: 8-18.1 human-murine chimeric antibody (antibody, human IgG1, kappa, V domains shown)
VH: QVQLQQSGAELARPGASVKMSCKASGYIFTMNTMHWVKQRPGQGLEWIGYINPYSGYTKYNQIFKDKATLTADKSSSTAYMRLSSLTSEDSAVYYCLRGGEGVWGQGTTLTVSS
VL: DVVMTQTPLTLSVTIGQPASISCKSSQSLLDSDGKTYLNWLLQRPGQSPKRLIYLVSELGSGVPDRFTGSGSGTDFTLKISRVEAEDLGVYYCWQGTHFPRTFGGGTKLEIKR
notes: Human IgG1 chimera
On to B3, for which, in test [11], the Kd was found to be 0.542 nM, the koff was 0.000241 s⁻¹ and the kon was found to be 445000 M⁻¹ s⁻¹. Moreover, in test [13], the EC50 came out at 1.58 nM and the MFI_Max turned out to be 8980 MFI. The “MFI at antibody concentration 4 nM” value in [14] was 16100 MFI. In addition, in [15], the “EC50 (nM), luciferase reporter, Jurkat-Lucia NFAT cells” value came to 11.8 nM and the “Maximum response value (RLU)” value was determined as 10400 RLU.

B4: 6-44.5-H1-L2 humanized antibody (antibody, human IgG1, kappa, V domains shown)
VH: EVQLVQSGAEVKKPGSSVKVSCKASGHTFSSHIMHWVRQAPGQGLEWMGYINPNNDRTEYSEKFKGRVTITADKSTSTAYMELSSLRSEDTAVYYCAGEAYYSNSLYAMDYWGQGTTVTVSS
VL: DIVMTQSPDSLAVSLGERATINCKSSQSLFNSRTRKNYLAWYQQKPGQSPKLLIYWASTRESGVPDRFSGSGSGTDFTLTISSLQAEDVAVYYCKQSYYLRTFGGGTKVEIKR
For B4, the EC50 with human CD3ε/δ-His [3] was found to be 0.03 nM; in test [4], 0.09 nM; in [16], 0.17 nM; in [7] it was 0.43 nM; with monkey CD3ε protein it was 0.00947 pM; with monkey CD3ε/δ-His, 0.000225 nM. Besides, the max-OD450 in the test with human CD3ε/δ-His [3] was determined as 3.05 OD450; in test [4], 2.7 OD450; with monkey CD3ε protein it was 2.84 OD450; with monkey CD3ε/δ-His, 3.07 OD450. Moreover, the results for the max_MFI in [16] and in test [7] were 24800 MFI and 34000 MFI, respectively. For the same molecule, the Kd stood at 69 nM with human CD3ε/δ-His [17] and 0.669 nM in test [18]. In addition, the koff was determined as 0.0339 s⁻¹ with human CD3ε/δ-His [17] and 0.000311 s⁻¹ in test [18]. The kon turned out to be 491000 M⁻¹ s⁻¹ with human CD3ε/δ-His [17] and 466000 M⁻¹ s⁻¹ in [18].
